# Experimental data from patent US20050182003A1, “Drugs to be used in gene therapy for recessively transmitted genetic disease” (priority 2002, published 2005).
# B1: Dsg3 protein: Dsg3 protein prepared with the use of E. Coli expression vector, administered orally (protein, UniProt P32926 50-999, looked up)
# Desmoglein-3: EWVKFAKPCREGEDNSKRNPIAKITSDYQATQKITYRISGVGIDQPPFGIFVVDKNTGDINITAIVDREETPSFLITCRALNAQGLDVEKPLILTVKILDINDNPPVFSQQIFMGEIEENSASNSLVMILNATDADEPNHLNSKIAFKIVSQEPAGTPMFLLSRNTGEVRTLTNSLDREQASSYRLVVSGADKDGEGLSTQCECNIKVKDVNDNFPMFRDSQYSARIEENILSSELLRFQVTDLDEEYTDNWLAVYFFTSGNEGNWFEIQTDPRTNEGILKVVKALDYEQLQSVKLSIAVKNKAEFHQSVISRYRVQSTPVTIQVINVREGIAFRPASKTFTVQKGISSKKLVDYILGTYQAIDEDTNKAASNVKYVMGRNDGGYLMIDSKTAEIKFVKNMNRDSTFIVNKTITAEVLAIDEYTGKTSTGTVYVRVPDFNDNCPTAVLEKDAVCSSSPSVVVSARTLNNRYTGPYTFALEDQPVKLPAVWSITTLNATSALLRAQEQIPPGVYHISLVLTDSQNNRCEMPRSLTLEVCQCDNRGICGTSYPTTSPGTRYGRPHSGRLGPAAIGLLLLGLLLLLLAPLLLLTCDCGAGSTGGVTGGFIPVPDGSEGTIHQWGIEGAHPEDKEITNICVPPVTANGADFMESSEVCTNTYARGTAVEGTSGMEMTTKLGAATESGGAAGFATGTVSGAASGFGAATGVGICSSGQSGTMRTRHSTGGTNKDYADGAISMNFLDSYFSQKAFACAEEDDGQEANDCLLIYDNEGADATGSPVGSVGCCSFIADDLDDSFLDSLGPKFKKLAEISLGVDGEGKEVQPPSKDSGYGIESCGHPIEVQQTGFVKCQTLSGSQGASALSTSGSVQPAVSIPDPLQHGNYLVTETYSASGSLVQPSTAGFDPLLTQNVIVTERVICPISSVPGNLAGPTQLRGSHTMLCTEDPCSRLI
# Test system: mouse
# Assay: suppression of immune response by oral tolerance
# Type: in vivo
# Settings: administered orally to a mouse
# Excerpt: As for a method for suppressing antigen-specific immune response, various methods have been already reported. […] Therefore, they tried to suppress the anti-Dsg3 antibody generation in Dsg3^+/+ graft strain by inhibiting the binding of CD40 and CD40L, which are playing an important role to the establishment of immune response. CD40L is a type II cell membrane-penetrating protein, expressed transiently in activated T cells having received antigen stimulation and CD40, its receptor, is expressed in B cells, dendritic cells, monocyte/macrophage, endothelial cells and the like. The CD40-CD40L binding not only plays an important role in cellular immunity by promoting cytokine production and the like, but it is clarified to be quite important for proliferation of B cells, antibody production and the like. Thus, attempts have been made to suppress immune response in autoimmune diseases, organ transplantation and the like by using anti-CD40L monoclonal antibody inhibiting this binding. As mentioned above, in Dsg3^+/+ graft strain, anti-Dsg3 IgG antibody generation, which is detected in serum by ELISA method, is observed approximately two weeks after skin graft, in all mice that underwent skin graft.
molecule,measurement,value
B1,suppression of immune response by oral tolerance,failed to obtain successful results
